B1: MYBL2 (parent)
chain: FPNRTDQQCQYRWLRVLNPDLVKG

The record followed here is the supplement of paper PMC10567573.
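Further: lentivirally expressed fusions sorted by FACS into six bins by GFP to DsRed ratio, PSI derived from sequencing read proportions per bin multiplied by bin number.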

In this data set the parent is B1. Kind of data set: protein stability index of a GFP-peptide fusion (GPS, HEK-293T) (PSI 1-6); higher = more stable. To be noted: c terminus: a fixed tail appended.
For the variant FPNRTDQQCQYCWLRVLNPDLVKG, the protein stability index worked out at 2.55.
In the case of FPNRTDQQCQYIWLRVLNPDLVKG, the protein stability index worked out at 1.97.
Under FPNRTDQQCQYLWLRVLNPDLVKG stands 1.45; under FPNRTDQQCQYGWLRVLNPDLVKG, 1.59; under FPNRTDQQCQYFWLRVLNPDLVKG, 2.25.
In the case of FPNRTDQQCQYKWLRVLNPDLVKG, the protein stability index came out at 2.25.
Consider FPNRTDQQCQYTWLRVLNPDLVKG, for which the protein stability index was 1.66.
FPNRTDQQCQYSWLRVLNPDLVKG: the protein stability index was 2.25.
Turning to FPNRTDQQCQYWWLRVLNPDLVKG, the protein stability index was determined as 1.95.
As for FPNRTDQQCQYMWLRVLNPDLVKG, the protein stability index was 1.96.
Take FPNRTDQQCQYDWLRVLNPDLVKG: the protein stability index stood at 1.19.
Under FPNRTDQQCQYNWLRVLNPDLVKG stands 1.69; under FPNRTDQQCQYAWLRVLNPDLVKG, 2.75.
Turning to FPNRTDQQCQVRWLRVLNPDLVKG, the protein stability index is 2.02.
Regarding FPNRTDQQCQFRWLRVLNPDLVKG, the protein stability index was found to be 1.95.
As to FPNRTDQQCQRRWLRVLNPDLVKG, the protein stability index was found to be 1.97.
Under FPNRTDQQCQKRWLRVLNPDLVKG stands 2.23.
For FPNRTDQQCQHRWLRVLNPDLVKG the value was 2.24.
Consider FPNRTDQQCQGRWLRVLNPDLVKG, for which the protein stability index was 2.31.
For the variant FPNRTDQQCQNRWLRVLNPDLVKG, the protein stability index turned out to be 2.39.
Under FPNRTDQQCQMRWLRVLNPDLVKG stands 2.12; under FPNRTDQQCQIRWLRVLNPDLVKG, 2.04; under FPNRTDQQCQTRWLRVLNPDLVKG, 2.36.
In the case of FPNRTDQQCQLRWLRVLNPDLVKG, the protein stability index worked out at 2.1.
For the variant FPNRTDQQCQWRWLRVLNPDLVKG, the protein stability index was found to be 1.66.
Consider FPNRTDQQCQPRWLRVLNPDLVKG, for which the protein stability index worked out at 2.13.
For FPNRTDQQCQDRWLRVLNPDLVKG the value was 2.91.
Take FPNRTDQQCQSRWLRVLNPDLVKG: the protein stability index was 2.11.
Turning to FPNRTDQQCQQRWLRVLNPDLVKG, the protein stability index was determined as 1.85.
Turning to FPNRTDQQCQCRWLRVLNPDLVKG, the protein stability index was determined as 2.29.
As for FPNRTDQQCQERWLRVLNPDLVKG, the protein stability index came to 3.11.
On to FPNRTDQQCQARWLRVLNPDLVKG, for which the protein stability index is 2.16.
On to FPNRTDQQSQYRWLRVLNPDLVKG, for which the protein stability index turned out to be 2.45.
On to FPNRTDQQHQYRWLRVLNPDLVKG, for which the protein stability index turned out to be 2.88.
As to FPNRTDQQYQYRWLRVLNPDLVKG, the protein stability index came out at 2.49.
Turning to FPNRTDQQVQYRWLRVLNPDLVKG, the protein stability index was determined as 2.05.
FPNRTDQQFQYRWLRVLNPDLVKG: the protein stability index was determined as 2.38.
For FPNRTDQQDQYRWLRVLNPDLVKG, the protein stability index came to 2.19.
Take FPNRTDQQGQYRWLRVLNPDLVKG: the protein stability index stood at 1.97.
Regarding FPNRTDQQNQYRWLRVLNPDLVKG, the protein stability index stood at 2.18.
For the variant FPNRTDQQQQYRWLRVLNPDLVKG, the protein stability index is 2.24.
On to FPNRTDQQWQYRWLRVLNPDLVKG, for which the protein stability index came to 2.51.
On to FPNRTDQQIQYRWLRVLNPDLVKG, for which the protein stability index stood at 2.16.
In the case of FPNRTDQQEQYRWLRVLNPDLVKG, the protein stability index came to 1.86.
FPNRTDQQLQYRWLRVLNPDLVKG: the protein stability index was determined as 2.26.
With FPNRTDQQKQYRWLRVLNPDLVKG, the protein stability index was determined as 2.76.
As for FPNRTDQQRQYRWLRVLNPDLVKG, the protein stability index was 2.85.
On to FPNRTDQQTQYRWLRVLNPDLVKG, for which the protein stability index came to 2.9.
Take FPNRTDQQPQYRWLRVLNPDLVKG: the protein stability index amounted to 2.5.
As to FPNRTDQQMQYRWLRVLNPDLVKG, the protein stability index stood at 2.45.
Under FPNRTDQQAQYRWLRVLNPDLVKG stands 2; under FPNRTGQQCQYRWLRVLNPDLVKG, 1.51; under FPNRTFQQCQYRWLRVLNPDLVKG, 2.36.
Take FPNRTVQQCQYRWLRVLNPDLVKG: the protein stability index is 1.98.
As for FPNRTRQQCQYRWLRVLNPDLVKG, the protein stability index was found to be 1.41.
Under FPNRTPQQCQYRWLRVLNPDLVKG stands 1.81.
For the variant FPNRTEQQCQYRWLRVLNPDLVKG, the protein stability index is 1.61.
In the case of FPNRTCQQCQYRWLRVLNPDLVKG, the protein stability index was 1.45.
Regarding FPNRTNQQCQYRWLRVLNPDLVKG, the protein stability index was determined as 1.8.
FPNRTYQQCQYRWLRVLNPDLVKG: the protein stability index amounted to 1.61.
On to FPNRTMQQCQYRWLRVLNPDLVKG, for which the protein stability index was 1.27.
For the variant FPNRTWQQCQYRWLRVLNPDLVKG, the protein stability index was found to be 1.75.
For FPNRTSQQCQYRWLRVLNPDLVKG the value was 1.89; for FPNRTHQQCQYRWLRVLNPDLVKG, 1.94.
For FPNRTAQQCQYRWLRVLNPDLVKG, the protein stability index came out at 1.7.
Take FPNRTTQQCQYRWLRVLNPDLVKG: the protein stability index is 1.84.
On to FPNRTLQQCQYRWLRVLNPDLVKG, for which the protein stability index is 1.97.
Take FPNRTQQQCQYRWLRVLNPDLVKG: the protein stability index was 2.91.
For FPNRTKQQCQYRWLRVLNPDLVKG, the protein stability index was 2.06.
Consider FPNRTIQQCQYRWLRVLNPDLVKG, for which the protein stability index turned out to be 2.07.
For FPNRTDQQCQYRWLDVLNPDLVKG the value was 2.48; for FPNRTDQQCQYRWLCVLNPDLVKG, 2.19; for FPNRTDQQCQYRWLFVLNPDLVKG, 2.36.
Regarding FPNRTDQQCQYRWLAVLNPDLVKG, the protein stability index was 1.45.
For FPNRTDQQCQYRWLEVLNPDLVKG, the protein stability index was determined as 2.44.
In the case of FPNRTDQQCQYRWIRVLNPDLVKG, the protein stability index was found to be 2.03.
Consider FPNRTDQQCQYRWRRVLNPDLVKG, for which the protein stability index is 2.44.
Consider FPNRTDQQCQYRWVRVLNPDLVKG, for which the protein stability index came out at 2.21.
For FPNRTDQQCQYRWTRVLNPDLVKG the value was 1.64.
Regarding FPNRTDQQCQYRWDRVLNPDLVKG, the protein stability index turned out to be 2.22.
With FPNRTDQQCQYRWQRVLNPDLVKG, the protein stability index was 2.08.
Under FPNRTDQQCQYRWYRVLNPDLVKG stands 1.83; under FPNRTDQQCQYRWPRVLNPDLVKG, 2.05; under FPNRTDQQCQYRWWRVLNPDLVKG, 1.4.
Consider FPNRTDQQCQYRWGRVLNPDLVKG, for which the protein stability index turned out to be 1.48.
For the variant FPNRTDQQCQYRWARVLNPDLVKG, the protein stability index came to 3.17.
In the case of FPNRTDQQCQYRWHRVLNPDLVKG, the protein stability index was 2.67.
Turning to FPNRTDQQCQYRWFRVLNPDLVKG, the protein stability index turned out to be 1.51.
As to FPNRTDQQCQYRWNRVLNPDLVKG, the protein stability index is 2.46.
With FPNRTDQQCQYRWKRVLNPDLVKG, the protein stability index is 2.88.
For FPNRTDQQCQYRWSRVLNPDLVKG, the protein stability index worked out at 2.35.
In the case of FPNRTDQQCQYRWCRVLNPDLVKG, the protein stability index came to 2.02.
Take FPNRTDQQCQYRWERVLNPDLVKG: the protein stability index was found to be 2.28.
Under FPNRTDQQCQYRWMRVLNPDLVKG stands 2.12.
